Experimental data published in US20110158936A1 (LORUS THERAPEUTICS, published 2011).

Columns and labels:
[1] = molecular target: T1, murine interleukin 17E receptor present on the pre-B cell line 70Z/3 (murine, UniProt Q9JIP3 18-499); experiment: FACS on 70Z/3 cells incubated with IL-17E (1 ug/10^6 cells), detected with biotin-conjugated goat anti-human IL17E and PE-Cy5.5 streptavidin
T1 construct: whole, on cells; This is the endogenous receptor on 70Z/3 cells; also called murine IL-17E receptor; IL-17E receptor
T1 sequence (looked up): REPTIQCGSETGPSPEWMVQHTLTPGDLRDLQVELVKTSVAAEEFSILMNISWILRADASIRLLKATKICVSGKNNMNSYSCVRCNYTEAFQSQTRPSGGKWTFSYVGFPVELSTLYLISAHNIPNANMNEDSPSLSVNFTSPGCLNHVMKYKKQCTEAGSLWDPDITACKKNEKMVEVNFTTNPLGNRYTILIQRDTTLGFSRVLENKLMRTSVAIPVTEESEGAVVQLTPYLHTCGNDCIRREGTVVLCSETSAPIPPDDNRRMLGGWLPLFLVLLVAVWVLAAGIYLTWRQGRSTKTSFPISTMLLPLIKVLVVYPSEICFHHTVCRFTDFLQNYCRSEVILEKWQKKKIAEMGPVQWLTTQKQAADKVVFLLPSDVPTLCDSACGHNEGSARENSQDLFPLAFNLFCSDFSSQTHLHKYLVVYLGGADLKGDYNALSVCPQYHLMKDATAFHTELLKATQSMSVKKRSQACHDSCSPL
Method: (§1) The ability of human and murine interleukin 17E to bind to the IL-17E receptor was examined using the murine pre-B cell line 70Z/3 (Paige, C. J., et al. (1981) Nature 292:631-3).
(§2) Fluorescence-Activated Cell Sorter (FACS) Analysis: 1×10⁶ 70Z/3 cells/sample were incubated with either murine or human IL-17E (1 μg/10⁶ cells) for 30 minutes at 4° C. After washing twice, cells that had been incubated with murine IL-17E were incubated with biotin-conjugated goat anti-mouse IL17E and phycoerythrin (PE)-Cy5.5-conjugated streptavidin. Cells that had been incubated with human IL-17E were incubated with biotin-conjugated goat anti-human IL17E-biotin and phycoerythrin (PE)-Cy5.5-conjugated streptavidin. As negative controls, cells were stained with antibodies as described without preincubation with human or murine IL-17E. Samples were then fixed with 0.5% paraformaldehyde prior to FACS analysis.

[2] = molecular target: T1, murine interleukin 17E receptor present …; experiment: FACS on 70Z/3 cells incubated with IL-17E (1 ug/10^6 cells), detected with biotin-conjugated goat anti-mouse IL17E and PE-Cy5.5 streptavidin
Method: as §1, §2

B1: recombinant human interleukin 17E (ligand)
chain: YSHWPSCCPSKGQDTSEELLRWSTVPVPPLEPARPNRHPESCRASEDGPLNSRAISPWRYELDRDLNRLPQDLYHARCLCPHCVSLQTGSHMDPRGNSELLYHNQTVFYRRPCHGEKGTHKGYCLERRLYRVSLACVCVRPRVMG
notes: also called human IL-17E; hIL-17E
B1: binds [1].

B2: murine interleukin 17E (ligand)
chain: VSLRIQEGCSHLPSCCPSKEQEPPEEWLKWSSASVSPPEPLSHTHHAESCRASKDGPLNSRAISPWSYELDRDLNRVPQDLYHARCLCPHCVSLQTGSHMDPLGNSVPLYHNQTVFYRRPCHGEEGTHRRYCLERRLYRVSLACVCVRPRVMA
notes: also called murine IL-17E; mIL-17E
B2: binds [2].
